T1: CVA16 empty particle (strain CVA16/190) (Coxsackievirus A16, strain CVA16/190 …, strain)
T1 chain 1: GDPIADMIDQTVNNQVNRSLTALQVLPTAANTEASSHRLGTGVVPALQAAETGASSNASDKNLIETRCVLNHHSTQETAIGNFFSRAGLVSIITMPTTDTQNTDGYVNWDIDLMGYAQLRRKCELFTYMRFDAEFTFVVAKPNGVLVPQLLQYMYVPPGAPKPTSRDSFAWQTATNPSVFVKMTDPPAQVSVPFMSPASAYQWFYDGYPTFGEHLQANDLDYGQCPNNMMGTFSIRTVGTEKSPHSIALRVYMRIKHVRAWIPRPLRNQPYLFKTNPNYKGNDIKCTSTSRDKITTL
T1 chain 2: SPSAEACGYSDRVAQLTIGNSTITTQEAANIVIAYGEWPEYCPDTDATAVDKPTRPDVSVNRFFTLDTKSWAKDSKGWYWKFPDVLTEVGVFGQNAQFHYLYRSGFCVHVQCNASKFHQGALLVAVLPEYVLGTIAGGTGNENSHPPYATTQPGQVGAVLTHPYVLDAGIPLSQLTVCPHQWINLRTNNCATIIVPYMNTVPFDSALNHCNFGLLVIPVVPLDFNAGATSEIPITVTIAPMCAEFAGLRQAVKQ
T1 chain 3: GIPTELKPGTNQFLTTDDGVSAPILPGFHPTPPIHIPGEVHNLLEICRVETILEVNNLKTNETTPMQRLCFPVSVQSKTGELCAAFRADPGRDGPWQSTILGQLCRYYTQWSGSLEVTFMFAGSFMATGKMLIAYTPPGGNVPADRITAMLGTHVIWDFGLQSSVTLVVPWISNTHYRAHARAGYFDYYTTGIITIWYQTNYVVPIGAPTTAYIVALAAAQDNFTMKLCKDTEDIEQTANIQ

T2: CVA16 mature virion (strain CVA16/190) (Coxsackievirus A16, strain CVA16/190 …, strain)
T2 chain 1: T1 chain 1
T2 chain 2: T1 chain 2
T2 chain 3: T1 chain 3
T2 chain 4: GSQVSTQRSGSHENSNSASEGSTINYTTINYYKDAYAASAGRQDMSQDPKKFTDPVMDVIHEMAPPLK

T3: CVA16 A-particle (strain CVA16/190) (Coxsackievirus A16, strain CVA16/190 …, strain)
T3 chain 1: T1 chain 1
T3 chain 2: T1 chain 2
T3 chain 3: T1 chain 3

B1: Mouse Monoclonal Antibody-NA9D7 (antibody, V domains shown)
VH: EVQLQQSGPELVKPGASVKMSCKASGYTFTDYYMKWVKQSHGKSLEWIGDINPNNGATSYNQKFKGKATLTVDKSSSTAYMQLNSLTSEDSAVYYCARRGYGLYYAMDYWGQGTSVTVSS
VL: EIVLTQSPTTMAASPGEKITITCSASSSISSNYLHWYQQKPGFSPKLLIYRTSNLASGVPARFSGSGSGTSYSLTIGTMEAEDVATYYCQQGSSIPHTFGGGTKLEIK
B2: NA9D7 Fab fragment (Fab, V domains shown)
VH: B1 VH
VL: B1 VL
B3: Mouse Monoclonal Antibody-14B10 (antibody, V domains shown)
VH: QVQLQQSGPELVKPGASVKISCKASGYEFSRSWMNWVKQRPGQGLEWIGRIYPGDGDTNYNGKFRDKATLTADKSSSTAYMQLSRLTSVDSAVYFCARRRGYFDVWGAGTTVTVS
VL: DIQMTQSSSYLSVSLGGRVTITCKASDHINNWLAWYQQKPGNAPRLLISGATSLETGIPSRFSGSGSGKDYTLSITSLQTEDVGTYYCQQYWSTPTFGGGTKLEIK
B4: 14B10 Fab fragment (Fab, V domains shown)
VH: B3 VH
VL: B3 VL
B5: Mouse Monoclonal Antibody-18A7 (antibody, V domains shown)
VH: EVQLQQSGPELVKPGASVKMSCKASGYTFTDYYMKWVKQSHGKSLEWIGDINPYNGDSFNNQKFKGKATLTVDTSSSTAYMQLNSLTSEDSAVYYCAIPYDYDEGWFAYWGQGTLVTVSA
VL: DIVMSQSPSSLAVSVGEKVTMSCKSSQSLLYSNNQKNYLAWYQQKPGQSPQLLIYWASTRESGVPDRFTGSESGTDFTLTISSVKAEDLAVFYCQQYYNYPWTFGGGTKLEIK
B6: 18A7 Fab fragment (Fab, V domains shown)
VH: B5 VH
VL: B5 VL

What was measured:
[1] = molecular target: CVA16 mature virion (strain CVA16/190) (coxsackievirus A16 (strain CVA16/190))
[2] = molecular target: T1, CVA16 empty particle (strain CVA16/190); test: ELISA
[3] = molecular target: T2, CVA16 mature virion (strain CVA16/190); test: cryo-EM structure
[4] = molecular target: T1, CVA16 empty particle (strain CVA16/190); test: cryo-EM structure
[5] = molecular target: T3, CVA16 A-particle (strain CVA16/190); test: cryo-EM structure

| Binder | IC50 of neutralisation of CVA16/190 in RD cells (micro-neutralization, Elispot) [1] | binding result [2] | stoichiometry N [3] | other results |
| --- | --- | --- | --- | --- |
| B1 | 1.96 µg/mL | no binding |  |  |
| B2 |  |  | ≤ 60 Fabs per mature virion |  |
| B3 | 1.01 µg/mL | no binding |  |  |
| B4 |  |  | ≤ 60 Fabs per mature virion |  |
| B5 | 0.04 µg/mL |  |  |  |
| B6 |  |  |  | stoichiometry N [4]: 12 Fabs per viral particle; stoichiometry N [5]: 12 Fabs per viral particle |
